Data reported in article PMC4414297, “An epitope tag alters phosphoglycerate dehydrogenase structure and impairs ability to support cell proliferation” (Cancer & Metabolism, 2015).

Molecular target: the molecule itself
Test: negative-stain electron microscopy; 12 ng/ul His-PHGDH or 15 ng/ul untagged PHGDH with 0.5 mM NADH, 2% uranyl acetate; reference-free alignment, class averages, particle areas compared

B1: recombinant untagged PHGDH (D-3-phosphoglycerate dehydrogenase) (enzyme, human, UniProt O43175 1-533, looked up)
chain: MAFANLRKVLISDSLDPCCRKILQDGGLQVVEKQNLSKEELIAELQDCEGLIVRSATKVTADVINAAEKLQVVGRAGTGVDNVDLEAATRKGILVMNTPNGNSLSAAELTCGMIMCLARQIPQATASMKDGKWERKKFMGTELNGKTLGILGLGRIGREVATRMQSFGMKTIGYDPIISPEVSASFGVQQLPLEEIWPLCDFITVHTPLLPSTTGLLNDNTFAQCKKGVRVVNCARGGIVDEGALLRALQSGQCAGAALDVFTEEPPRDRALVDHENVISCPHLGASTKEAQSRCGEEIAVQFVDMVKGKSLTGVVNAQALTSAFSPHTKPWIGLAEALGTLMRAWAGSPKGTIQVITQGTSLKNAGNCLSPAVIVGLLKEASKQADVNLVNAKLLVKEAGLNVTTSHSPAAPGEQGFGECLLAVALAGAPYQAVGLVQGTTPVLQGLNGAVFRPEVPLRRDLPLLLFRTQTSDPAMLPTMIGLLAEAGVRLLSYQTSLVSDGETWHVMGISSLLPSLEAWKQHVTEAFQFHF
notes: D-3-phosphoglycerate dehydrogenase (PHGDH), human, expressed from pET28a PHGDH without a tag; Oligomer size is left open (dimer, trimer, or tetramer); also called rPHGDH; source: E. coli BL21, purified (Cibacron Blue F3GA, MonoQ, Sephacryl S-200)
B1: binds.
